Laboratory results reported in US20250000946A1.

Target: Human IL-2Rα/β/γ complex (high affinity IL-2 receptor) (human) (UniProt P01589)
Assay: cell-based or functional assay

Human IL-2Rα/β/γ complex (high affinity IL-2 receptor) (human), sequence (P01589 22-272, chain 1 of 3): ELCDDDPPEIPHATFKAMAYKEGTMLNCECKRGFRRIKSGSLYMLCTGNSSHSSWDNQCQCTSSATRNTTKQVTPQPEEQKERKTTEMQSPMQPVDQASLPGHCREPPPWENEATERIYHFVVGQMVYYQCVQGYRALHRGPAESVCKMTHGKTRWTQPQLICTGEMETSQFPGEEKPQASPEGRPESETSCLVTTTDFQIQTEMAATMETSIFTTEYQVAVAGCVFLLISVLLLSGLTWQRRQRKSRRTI
Human IL-2Rα/β/γ complex (high affinity IL-2 receptor) (human), sequence (P14784 27-551, chain 2 of 3, further chain): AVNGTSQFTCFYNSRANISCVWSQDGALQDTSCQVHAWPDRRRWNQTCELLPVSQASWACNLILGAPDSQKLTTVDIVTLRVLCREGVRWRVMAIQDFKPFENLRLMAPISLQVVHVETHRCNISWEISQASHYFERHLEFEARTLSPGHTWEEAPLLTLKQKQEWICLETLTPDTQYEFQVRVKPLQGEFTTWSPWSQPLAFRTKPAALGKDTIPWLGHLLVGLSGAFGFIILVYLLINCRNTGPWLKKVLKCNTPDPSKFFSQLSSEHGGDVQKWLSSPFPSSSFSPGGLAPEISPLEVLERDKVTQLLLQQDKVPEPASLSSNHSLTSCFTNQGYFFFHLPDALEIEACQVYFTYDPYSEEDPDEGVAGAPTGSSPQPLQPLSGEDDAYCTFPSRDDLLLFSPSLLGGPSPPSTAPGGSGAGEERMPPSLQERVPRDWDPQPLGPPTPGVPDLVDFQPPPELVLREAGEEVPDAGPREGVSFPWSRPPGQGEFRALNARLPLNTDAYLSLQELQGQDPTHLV
Human IL-2Rα/β/γ complex (high affinity IL-2 receptor) (human), sequence (P31785 23-369, chain 3 of 3, further chain): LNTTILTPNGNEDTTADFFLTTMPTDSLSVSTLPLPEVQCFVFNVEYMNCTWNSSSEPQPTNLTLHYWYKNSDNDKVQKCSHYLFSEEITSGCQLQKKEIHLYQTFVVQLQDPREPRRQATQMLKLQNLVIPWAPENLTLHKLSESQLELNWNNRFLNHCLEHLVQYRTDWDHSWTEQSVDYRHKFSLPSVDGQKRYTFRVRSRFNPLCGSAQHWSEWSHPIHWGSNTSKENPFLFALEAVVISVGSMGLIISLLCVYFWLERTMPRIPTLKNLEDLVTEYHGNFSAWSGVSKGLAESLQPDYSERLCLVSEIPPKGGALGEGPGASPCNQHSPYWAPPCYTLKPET

| Binder | Human Treg Potency EC50 (STAT5 phosphorylation) | Human Treg Potency reduction |
| --- | --- | --- |
| W3XX115-T3U0.E44-1.uIgG4V322 (Fc fusion) APTSSSTKKTQLQLEHLLLDLQMILNGINNYKNPKLTRMLTAKFAMPKKATELKHLQCLEEELKPLEEVLNGAQSKNFHLRPRDLISNINVIVLELKGSETTFMCEYADETATIVEFLNRWITFCQSIISTLTESKYGPPCPPCPAPEAAGGPSVFLFPPKPKDTLMISRTPEVTCVVVDVSQEDPEVQFNWYVDGVEVHNAKTKPREEQFNSTYRVVSVLTVLHQDWLNGKEYKCKVSNKGLPSSIEKTISKAKGQPREPQVYTLPPCQEEMTKNQVSLWCLVKGFYPSDIAVEWESNGQPENNYKTTPPVLDSDGSFFLYSRLTVDKSRWQEGNVFSCSVMHEALHNHYTQKSLSLSLG heavy: EIQLQQSGPELVKPGASVKVSCKASGYSFTDYNMYWVKQSHGESLEWIGYIDPYNGGTRYNQKFKGKATLTVDKSSSTAFMHLNSLTSEDSAVYYCARNGHWDGAWFAYWGQGTLVTVSAASTKGPSVFPLAPCSRSTSESTAALGCLVKDYFPEPVTVSWNSGALTSGVHTFPAVLQSSGLYSLSSVVTVPSSSLGTKTYTCNVDHKPSNTKVDKRVESKYGPPCPPCPAPEAAGGPSVFLFPPKPKDTLMISRTPEVTCVVVDVSQEDPEVQFNWYVDGVEVHNAKTKPREEQFNSTYRVVSVLTVLHQDWLNGKEYKCKVSNKGLPSSIEKTISKAKGQPREPQVCTLPPSQEEMTKNQVSLSCAVKGFYPSDIAVEWESNGQPENNYKTTPPVLDSDGSFFLVSRLTVDKSRWQEGNVFSCSVMHEALHNHYTQKSLSLSLG light: DIQMNQSPSSLSASLGDTITITCHASQNINVWLSWYQQKPGNIPKLLIYKASNLHTGVPSRFSGSRSGTGFTLTISSLQPEDIATYYCHQGQSYPFTFGSGTKLEIKRTVAAPSVFIFPPSDEQLKSGTASVVCLLNNFYPREAKVQWKVDNALQSGNSQESVTEQDSKDSTYSLSSTLTLSKADYEKHKVYACEVTHQGLSSPVTKSFNRGEC | 7.78 nM | 5560 fold |
| W3XX115-T2U0.E44-31.uIgG4V322 (Fc fusion) APTSSSTKKTQLQLEHLLLDLQMILNGINNYKNPKLTRMLTVKFYMPKKATELKHLQCLEEELKPLEEVLNLAQSKNFHLRPRDLISNINVIVLELKGSETTFMCEYADETATIVEFLNRWITFCQSILESKYGPPCPPCPAPEAAGGPSVFLFPPKPKDTLMISRTPEVTCVVVDVSQEDPEVQFNWYVDGVEVHNAKTKPREEQFNSTYRVVSVLTVLHQDWLNGKEYKCKVSNKGLPSSIEKTISKAKGQPREPQVYTLPPCQEEMTKNQVSLWCLVKGFYPSDIAVEWESNGQPENNYKTTPPVLDSDGSFFLYSRLTVDKSRWQEGNVFSCSVMHEALHNHYTQKSLSLSLG heavy: EIQLQQSGPELVKPGASVKVSCKASGYSFTDYNMYWVKQSHGESLEWIGYIDPYNGGTRYNQKFKGKATLTVDKSSSTAFMHLNSLTSEDSAVYYCARNGHWDGAWFAYWGQGTLVTVSAASTKGPSVFPLAPCSRSTSESTAALGCLVKDYFPEPVTVSWNSGALTSGVHTFPAVLQSSGLYSLSSVVTVPSSSLGTKTYTCNVDHKPSNTKVDKRVESKYGPPCPPCPAPEAAGGPSVFLFPPKPKDTLMISRTPEVTCVVVDVSQEDPEVQFNWYVDGVEVHNAKTKPREEQFNSTYRVVSVLTVLHQDWLNGKEYKCKVSNKGLPSSIEKTISKAKGQPREPQVCTLPPSQEEMTKNQVSLSCAVKGFYPSDIAVEWESNGQPENNYKTTPPVLDSDGSFFLVSRLTVDKSRWQEGNVFSCSVMHEALHNHYTQKSLSLSLG light: DIQMNQSPSSLSASLGDTITITCHASQNINVWLSWYQQKPGNIPKLLIYKASNLHTGVPSRFSGSRSGTGFTLTISSLQPEDIATYYCHQGQSYPFTFGSGTKLEIKRTVAAPSVFIFPPSDEQLKSGTASVVCLLNNFYPREAKVQWKVDNALQSGNSQESVTEQDSKDSTYSLSSTLTLSKADYEKHKVYACEVTHQGLSSPVTKSFNRGEC | 48.8 nM | 34900 fold |
| W3XX115-T2U0.E44-32.uIgG4V322 (Fc fusion) APTSSSTKKTQLQLEHLLLDLQMILNGINNYKNPKLTRMLTIKFYMPKKATELKHLQCLEEELKPLEEVLNLAQSKNFHLRPRDLISNINVIVLELKGSETTFMCEYADETATIVEFLNRWITFCQSILESKYGPPCPPCPAPEAAGGPSVFLFPPKPKDTLMISRTPEVTCVVVDVSQEDPEVQFNWYVDGVEVHNAKTKPREEQFNSTYRVVSVLTVLHQDWLNGKEYKCKVSNKGLPSSIEKTISKAKGQPREPQVYTLPPCQEEMTKNQVSLWCLVKGFYPSDIAVEWESNGQPENNYKTTPPVLDSDGSFFLYSRLTVDKSRWQEGNVFSCSVMHEALHNHYTQKSLSLSLG heavy: EIQLQQSGPELVKPGASVKVSCKASGYSFTDYNMYWVKQSHGESLEWIGYIDPYNGGTRYNQKFKGKATLTVDKSSSTAFMHLNSLTSEDSAVYYCARNGHWDGAWFAYWGQGTLVTVSAASTKGPSVFPLAPCSRSTSESTAALGCLVKDYFPEPVTVSWNSGALTSGVHTFPAVLQSSGLYSLSSVVTVPSSSLGTKTYTCNVDHKPSNTKVDKRVESKYGPPCPPCPAPEAAGGPSVFLFPPKPKDTLMISRTPEVTCVVVDVSQEDPEVQFNWYVDGVEVHNAKTKPREEQFNSTYRVVSVLTVLHQDWLNGKEYKCKVSNKGLPSSIEKTISKAKGQPREPQVCTLPPSQEEMTKNQVSLSCAVKGFYPSDIAVEWESNGQPENNYKTTPPVLDSDGSFFLVSRLTVDKSRWQEGNVFSCSVMHEALHNHYTQKSLSLSLG light: DIQMNQSPSSLSASLGDTITITCHASQNINVWLSWYQQKPGNIPKLLIYKASNLHTGVPSRFSGSRSGTGFTLTISSLQPEDIATYYCHQGQSYPFTFGSGTKLEIKRTVAAPSVFIFPPSDEQLKSGTASVVCLLNNFYPREAKVQWKVDNALQSGNSQESVTEQDSKDSTYSLSSTLTLSKADYEKHKVYACEVTHQGLSSPVTKSFNRGEC | 40.9 nM | 29200 fold |
